Data on 1 substance can be found in patent US7071384B2, “Methods for commercial production of heterologous laccase in plant tissue and extraction of the laccase from plant seed” (Genencor International, Inc., priority 1997, dated 2006).

Series [1] in a line: Effect of protease inhibitors on avidin stability in flaked maize kernel extract (biotin binding activity). It counts as physicochemical. The following applies: control avidin dissolved in extraction buffer. As for the experimental part:
Dry maize kernels (12% MC; 500 g per batch) were first cracked using a roller mill (Ferrell-Ross, Oklahoma City, Okla.), then flaked to 0.3 mm thickness using Roskamp flaking rolls (Model K, Roskamp Mfg., Inc., Waterloo, Iowa.). The particle size distribution of flaked material was determined by sieving (see Table 1).
Twenty grams of flaked kernels were extracted with 200 ml of Tris-HCl pH 7.9 containing 500 mM NaCl, 1 mM CaCl2 with stirring for 30 min at ambient temperature. One extraction was performed in the absence of protease inhibitors (control) and one in the presence of a protease inhibitor mixture containing 10 mM 2-mercaptoethanol (2-ME), 5 mM ethylenediamine tetraacetic acid (EDTA), 0.1 mM phenylmethanesulfonyl fluoride (PMSF), and 0.2 mM Diazo-N-acetyl-N-Leu-MeO. EDTA and 2-ME were added at the beginning of the extraction, and PMSF and diazo-N-acetyl-N-Leu-MeO were added 15 minutes after the extraction began. The insoluble residue was separated by centrifugation at 20,500×g for 25 minutes at 0° C. The supernatant was filtered through four layers of cheesecloth. […] D: Residual avidin activity in cooked egg white assayed with improved sensitivity. J. Food Sci. 56:707 (1991].and for protein integrity on western blots. For a positive control, chicken egg white avidin (Sigma Chemical Co.) was dissolved in the extraction buffer and samples were taken as above for activity assays.

Series [2] can be described thus: Biotin inhibition of HABA binding to avidin. The note with it: competitive binding of biotin and HABA to avidin. The text has this: The normalized absorbance value was obtained by subtracting from all the absorbance values, the value at which the absorbance change stopped.
In vivo, avidin exists as a homotetramer and its activity is to bind biotin to protect avian and reptilian eggs from pathogen invasion. Based upon this biotin-binding property, an analog of biotin, HABA, is utilized for the quantification of activity. Using the HABA binding assay, estimates of total avidin amounts in the fractions eluted from the affinity column were identical to estimates made by ELISA.

The nature of series [3]: Isoelectric point determination. It counts as physicochemical. The note with it: 10 is the highest pI that can be experimentally determined.

By Ki is commonly meant the equilibrium dissociation constant of an inhibitor or competing ligand from its target. For the substance “egg white: native chicken egg white avidin (Sigma Chemical Co.)”, the “avidin activity in extraction buffer” value in series [1] (0 h) was 88.2 µg/mL; in series [1] (1 h), 62.6 µg/mL; in series [1] (3 h) it was 61.1 µg/mL; in series [1] (6 h) it was 60.6 µg/mL; in series [1] (22 h), 59.6 µg/mL. The Ki in series [2] was found to be 3.2 µM. In series [3], this substance showed a pI of 10.
